Substitutions are numbered along the chain they refer to.
T1: mouse FcγRII (mouse, UniProt P08101 30-210)
T1 construct: Extracellular domain with C-terminal His tag; also called mFcγRII; mFcgRII
T1 sequence: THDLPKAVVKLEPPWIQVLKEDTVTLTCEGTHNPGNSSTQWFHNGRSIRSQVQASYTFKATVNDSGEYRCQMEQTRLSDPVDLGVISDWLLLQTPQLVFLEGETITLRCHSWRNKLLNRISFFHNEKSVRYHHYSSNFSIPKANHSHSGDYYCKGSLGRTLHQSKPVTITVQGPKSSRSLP

T2: mouse FcγRIII (mouse, UniProt P08508 31-215)
T2 construct: Extracellular domain with C-terminal His tag; also called mFcγRIII; mFcgRIII
T2 chain: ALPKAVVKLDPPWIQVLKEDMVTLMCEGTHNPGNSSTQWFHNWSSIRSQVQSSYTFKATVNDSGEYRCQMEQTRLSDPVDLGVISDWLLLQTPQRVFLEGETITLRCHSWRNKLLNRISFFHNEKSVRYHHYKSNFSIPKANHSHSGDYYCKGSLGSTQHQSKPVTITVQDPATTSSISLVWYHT

B1: MB833 (antibody, mouse IgG1, kappa)
heavy: QVQLQESGPGLVKPSETLSLTCAVSGHSISHDHAWSWVRQPPGEGLEWIGFISYSGITNYNPSLQGRVTISRDNSKNTLYLQMNSLRAEDTAVYYCARSLARTTAMDYWGEGTLVTVSSAKTTPPSVYPLAPGSAAQTNSMVTLGCLVKGYFPEPVTVTWNSGSLSSGVHTFPAVLQSDLYTLSSSVTVPSSTWPSETVTCNVAHPASSTKVDKKIVPRDCGCKPCICEPNEVELVFIFPPKPKDVLTITLTPKVTCVVVDISKDDPEVQFSWFVDDVEVHTAQTQPREEQFNSTFRSVSELPIMHQDWLNGKEFKCRVNSAAFPAYIERTISKTKGRPKAPQVYTIPPPKEQMAKDKVSLTCMITDFFPEDITVEWQWNGQPAENYKNTQPIMDTDGSYFVYSKLNVQKSNWEAGNTFTCSVLHEGLHNHHTEKSLSHSPGK
light: not shown
notes: CH name; VH H237 + CH, L chain MRAL-k0; copies: 2 + 2
B2: MB835 (antibody, mouse IgG1, kappa)
heavy: B1 heavy with K264D, Y327P, R330K
light: not shown
notes: as for B1
B3: MB850 (antibody, mouse IgG1, kappa)
heavy: B1 heavy with A322D, A323G, Y327P, E329Y, R330K
light: not shown
notes: as for B1
B4: MB859 (antibody, mouse IgG1, kappa)
heavy: B1 heavy with A322D, A323G
light: not shown
notes: as for B1
B5: MB862 (antibody, mouse IgG1, kappa)
heavy: B1 heavy with K264D, A322D, A323G, R330K
light: not shown
notes: as for B1
B6: MB864 (antibody, mouse IgG1, kappa)
heavy: B1 heavy with K264D, A322D, A323G, Y327P
light: not shown
notes: as for B1
B7: MB853 (antibody, mouse IgG1, kappa)
heavy: B1 heavy with Q291L, A322D, A323G, R330K
light: not shown
notes: as for B1
B8: MB861 (antibody, mouse IgG1, kappa)
heavy: B1 heavy with K264D, N320D, A322D, A323G, Y327P, R330K
light: not shown
notes: as for B1
B9: MB849 (antibody, mouse IgG1, kappa)
heavy: B1 heavy with A322D, A323G, R330K
light: not shown
notes: as for B1
B10: MB851 (antibody, mouse IgG1, kappa)
heavy: B1 heavy with A322D, A323G, Y327P
light: not shown
notes: as for B1
B11: MB863 (antibody, mouse IgG1, kappa)
heavy: B1 heavy with K264D, A322D, A323G, Y327P, E329Y, R330K
light: not shown
notes: as for B1
B12: MB855 (antibody, mouse IgG1, kappa)
heavy: B1 heavy with Q291L, A322D, A323G, Y327P
light: not shown
notes: as for B1
B13: MB857 (antibody, mouse IgG1, kappa)
heavy: B1 heavy with N320D, A322D, A323G, Y327P, E329Y, R330K
light: not shown
notes: as for B1
B14: MB856 (antibody, mouse IgG1, kappa)
heavy: B1 heavy with N320D, A322D, A323G, R330K
light: not shown
notes: as for B1
B15: MB848 (antibody, mouse IgG1, kappa)
heavy: B1 heavy with N320D, A322D, A323G, Y327P, R330K
light: not shown
notes: as for B1
B16: MB847 (antibody, mouse IgG1, kappa)
heavy: B1 heavy with Q291L, A322D, A323G, Y327P, R330K
light: not shown
notes: as for B1
B17: MB852 (antibody, mouse IgG1, kappa)
heavy: B1 heavy with Q291L, N320D, A322D, A323G, Y327P, R330K
light: not shown
notes: as for B1
B18: MB854 (antibody, mouse IgG1, kappa)
heavy: B1 heavy with Q291L, A322D, A323G, Y327P, E329Y, R330K
light: not shown
notes: as for B1
B19: MB858 (antibody, mouse IgG1, kappa)
heavy: B1 heavy with N320D, A322D, A323G, Y327P
light: not shown
notes: as for B1
B20: MB834 (antibody, mouse IgG1, kappa)
heavy: B1 heavy with Y327P, E329Y
light: not shown
notes: as for B1
B21: MB846 (antibody, mouse IgG1, kappa)
heavy: B1 heavy with K264D, A322D, A323G, Y327P, R330K
light: not shown
notes: as for B1
B22: MB860 (antibody, mouse IgG1, kappa)
heavy: B1 heavy with A322D, A323G, Y327P, E329Y
light: not shown
notes: as for B1

Biological target: T1, mouse FcγRII
Assay: SPR (Biacore T200); KD of H237-MB630/MRAL-k0 / KD of variant

Binder	Relative mFcγRII-binding activity (MB630 = 1) [fold]
B1	1.92
B2	2
B3	4.12
B4	3.22
B5	6.41
B6	10.4
B7	3.31
B8	7.25
B9	2.97
B10	4.13
B11	7.68
B12	3.41
B13	4.21
B14	4.23
B15	4.33
B16	4.12
B17	5.76
B18	4.77
B19	5.86
B20	1.29
B21	6.8
B22	3.74

Biological target: T2, mouse FcγRIII
Assay: as above

Binder	Relative mFcγRIII-binding activity (MB630 = 1) [fold]
B1	1.94
B2	3.05
B3	4.3
B4	3.9
B5	10.8
B6	19.9
B7	6.2
B8	13.2
B9	3.54
B10	5.23
B11	12.7
B12	6.21
B13	4.92
B14	4.95
B15	5
B16	7.24
B17	10
B18	6.84
B19	6.92
B20	1.25
B21	11.6
B22	4.07

Biological target: T1, mouse FcγRII
Assay: SPR (Biacore T200); KD of H237-mIgG1/MRAL-k0 / KD of variant

Binder	relative mFcγRII-binding activity (mIgG1 = 1) [fold]
B1	25.3
B2	26.3
B3	43.7
B4	34.2
B5	67.9
B6	110
B7	35
B8	76.8
B9	31.4
B10	43.8
B11	81.3
B12	36.2
B13	44.6
B14	44.8
B15	45.8
B16	43.7
B17	61
B18	50.6
B19	62
B20	17
B21	72.1
B22	39.6

Biological target: T2, mouse FcγRIII
Assay: as above

Binder	relative mFcγRIII-binding activity (mIgG1 = 1) [fold]
B1	0.45
B2	0.7
B3	0.79
B4	0.71
B5	1.98
B6	3.63
B7	1.13
B8	2.41
B9	0.65
B10	0.96
B11	2.33
B12	1.14
B13	0.9
B14	0.91
B15	0.92
B16	1.33
B17	1.83
B18	1.25
B19	1.27
B20	0.29
B21	2.12
B22	0.75

Source: patent US20150203577A1 (Chugai, published 2015)
